Assay results reported in article PMC8359929.

Substrate: N[C@@H](C(=O)O)[C@@H](O)[C@H](O)[C@H](O)COP(=O)(O)O
Experiment: purified protein
Format: biochemical, Salmonella enterica
Settings: 0.1 M triethanolamine-HCl pH 8.0, 37 °C, 0.2 mM NADH

B1: D-glucosaminate-6-phosphate ammonia-lyase (DGL), native (Salmonella enterica subsp. enterica serovar Typhimurium str. 14028S) (protein)
chain: MTPNIYQQLGLKKVINACGKMTILGVSSVAPEVMQATARAASAFVEIDALVEKTGELVSRYTGAEDSYITSCASAGIAIAVAAAITHGDRARVALMPDSSGMANEVVMLRGHNVDYGAPVTSAIRLGGGRIVEVGSSNLATRWQLESAINEKTAALLYVKSHHCVQKGMLSIDDFVQVAQANHLPLIVDAAAEEDLRGWVASGADMVIYSGAKAFNAPTSGFITGRKTWIAACKAQHQGIARAMKIGKENMVGLVYALENYHQGQTTVTAAQLQPVAEAISAIHGLYADIEQDEAGRAIWRIRVRVNASELGLNAQDVEAQLRGGEIAIYARKYQLHQGVFSLDPRTVAEGEMALIVARLREIAEHAAD
  Km: 139 ± 26 µM
  kcat: 27.4 ± 1.4 s⁻¹
  kcat/Km: 197000 ± 31000 M⁻¹ s⁻¹
